Source: patent publication US12692303

Tests used:
[1] = target: Human interleukin 23 (hIL-23) (human) (UniProt Q9NPF7); test: cell-based or functional assay
Natural IL-23 (human) = Natural IL-23 (human) (UniProt Q9NPF7); test: binding ELISA, antibody coated at 1 µg/ml, IL-23 titrated, anti-His detection
[2] = target: Human interleukin 23 (hIL-23) (human) (UniProt Q9NPF7); test: SPR, Biacore T200, antibody captured on Protein A chip, IL-23 in flow, 25 °C, 1:1 model

Chain of Human interleukin 23 (hIL-23) (human) (Q9NPF7 20-189 limits assumed, chain 1 of 2): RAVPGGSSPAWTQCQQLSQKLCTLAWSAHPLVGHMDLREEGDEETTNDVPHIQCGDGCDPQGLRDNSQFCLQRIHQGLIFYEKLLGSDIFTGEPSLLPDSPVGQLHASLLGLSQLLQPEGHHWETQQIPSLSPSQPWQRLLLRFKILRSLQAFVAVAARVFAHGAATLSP
Chain of Human interleukin 23 (hIL-23) (human) (chain, as listed by the source limits assumed, chain 2 of 2): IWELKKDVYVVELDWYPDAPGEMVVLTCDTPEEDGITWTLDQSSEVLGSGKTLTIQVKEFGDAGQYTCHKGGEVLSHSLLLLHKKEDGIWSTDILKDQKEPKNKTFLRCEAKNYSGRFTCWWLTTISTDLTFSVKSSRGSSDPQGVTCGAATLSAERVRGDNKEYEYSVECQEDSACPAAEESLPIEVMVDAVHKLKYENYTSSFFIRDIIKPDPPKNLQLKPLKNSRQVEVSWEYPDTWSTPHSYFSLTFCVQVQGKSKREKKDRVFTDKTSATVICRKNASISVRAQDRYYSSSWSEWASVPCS
Chain of Natural IL-23 (human) (Q9NPF7 20-189 limits assumed, chain 1 of 2): as the sequence (Q9NPF7 20-189 limits assumed, chain 1 of 2) above
Chain of Natural IL-23 (human) (chain, as listed by the source limits assumed, chain 2 of 2): as the sequence (chain, as listed by the source limits assumed, chain 2 of 2) above

B1: Risankizumab (antibody, INN chains, looked up, V domains shown)
VH: QVQLVQSGAEVKKPGSSVKVSCKASGYTFTDQTIHWMRQAPGQGLEWIGYIYPRDDSPKYNENFKGKVTITADKSTSTAYMELSSLRSEDTAVYYCAIPDRSGYAWFIYWGQGTLVTVSS
VL: DIQMTQSPSSLSASVGDRVTITCKASRDVAIAVAWYQQKPGKVPKLLIYWASTRHTGVPSRFSGSGSRTDFTLTISSLQPEDVADYFCHQYSSYPFTFGSGTKLEIKR
IC50, inhibition of phosphorylation of STAT3 in HEK Blue IL-23 cells induced by IL-23 [1]: 3.51 ng/mL
IC50, inhibition of release of IFN-γ from human NK cells induced by IL-23 [1]: 11.1 ng/mL
IC50, inhibition of release of IL-17A from mouse spleen cells induced by IL-23 [1]: 8.43 ng/mL
EC50 (Natural IL-23 (human)): 1.8 ng/mL
Kd [2]: 0.052 nM
koff [2]: 3.7e-05 s⁻¹
kon [2]: 706000 M⁻¹ s⁻¹
